Test results reported in patent publication US20220064322A1 (JACOBIO PHARMACEUTICALS, published 2022).
Read-outs that look alike come from different tables or passages of the source.

T1: human CD73 ecto-domain recombinant protein (huCD73) (human, UniProt P21589 27-547)
T1 construct: also called soluble huCD73; soluble recombinant CD73
T1 sequence: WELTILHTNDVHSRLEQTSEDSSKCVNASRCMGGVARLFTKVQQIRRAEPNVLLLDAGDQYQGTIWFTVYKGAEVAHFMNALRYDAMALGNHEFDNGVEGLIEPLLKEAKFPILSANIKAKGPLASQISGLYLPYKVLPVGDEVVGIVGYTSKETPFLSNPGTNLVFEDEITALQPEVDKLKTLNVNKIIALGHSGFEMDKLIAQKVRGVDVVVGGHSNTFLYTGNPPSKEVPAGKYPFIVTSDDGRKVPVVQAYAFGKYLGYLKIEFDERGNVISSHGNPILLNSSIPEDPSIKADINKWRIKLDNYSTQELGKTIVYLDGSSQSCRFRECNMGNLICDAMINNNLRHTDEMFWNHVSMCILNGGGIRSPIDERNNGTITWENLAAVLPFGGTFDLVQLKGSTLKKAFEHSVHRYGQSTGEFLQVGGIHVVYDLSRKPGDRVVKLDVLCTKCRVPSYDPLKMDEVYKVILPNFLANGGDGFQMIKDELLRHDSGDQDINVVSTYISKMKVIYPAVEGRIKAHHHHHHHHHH

T2: cynomolgus CD73 on the cell surface (293T/17-cynoCD73 cells) (cynomolgus (Macaca fascicularis), UniProt P21589 27-547 (human entry))
T2 chain: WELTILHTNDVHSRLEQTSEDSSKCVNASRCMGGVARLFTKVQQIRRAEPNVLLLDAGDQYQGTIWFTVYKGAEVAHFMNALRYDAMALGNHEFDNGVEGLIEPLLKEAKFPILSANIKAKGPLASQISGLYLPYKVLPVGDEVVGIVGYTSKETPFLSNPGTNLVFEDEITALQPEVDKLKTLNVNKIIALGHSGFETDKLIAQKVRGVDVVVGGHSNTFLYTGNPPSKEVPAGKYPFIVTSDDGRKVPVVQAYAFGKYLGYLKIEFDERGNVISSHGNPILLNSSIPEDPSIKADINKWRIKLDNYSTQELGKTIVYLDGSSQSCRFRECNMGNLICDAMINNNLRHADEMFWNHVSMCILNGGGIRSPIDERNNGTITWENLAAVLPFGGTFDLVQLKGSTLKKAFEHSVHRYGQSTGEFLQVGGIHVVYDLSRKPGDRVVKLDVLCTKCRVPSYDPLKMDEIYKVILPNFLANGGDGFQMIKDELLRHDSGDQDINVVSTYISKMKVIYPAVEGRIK


Legend:
[1] = molecular target: T1, human CD73 ecto-domain recombinant …; assay: indirect ELISA, coated soluble huCD73
Protocol: (§1) The indirect ELISA method was applied to evaluate the binding ability of each positive clone to soluble huCD73 protein. Soluble huCD73 was coated, and gradient diluted samples were incubated, then HPR-labeled secondary antibody was added, finally TMB was added to develop the color, and OD450 was read after termination.
(§2) 1 ug/ml of recombinant CD73 protein was coated on ELISA plates (Coning), incubate overnight at 4° C. The next day, wash 5 times in PBS and blocked with 200 ul/well 2% skimmed milk, a certain dose range of CD73 antibodies were incubated for 1 h at room temperature. Wash 5 times with PBST washing buffer (PBS, 0.05% Tween 20), add HRP-conjugated goat anti-mouse IgG (H+L) (Promega) and incubate at room temperature for 1 h to detect bound anti-CD73 antibodies; wash the plate 5 times again and add TMB (Life Technologies) for color development for 5 to 10 min; finally the reaction was stopped by adding 1N HCl, and the OD value was measured at 450 nm. GraphPad Prism software was used to generate data graphs and statistical affinity data.

[2] = molecular target: T1, human CD73 ecto-domain recombinant …; assay: indirect ELISA, coated soluble huCD73, HRP-labelled secondary antibody, OD450
Protocol: as §1, §2

[3] = molecular target: T1, human CD73 ecto-domain recombinant …; assay: indirect ELISA, coated soluble huCD73, curve fit
Protocol: as §1, §2

[4] = molecular target: T2, cynomolgus CD73 on the cell surface …; assay: cell-based or functional assay
[5] = molecular target: T1, human CD73 ecto-domain recombinant …; assay: cell-based or functional assay
[6] = molecular target: T2, cynomolgus CD73 on the cell surface …; assay: cell-based or functional assay
[7] = molecular target: T1, human CD73 ecto-domain recombinant …; assay: indirect ELISA, coated huCD73 recombinant protein
Protocol: (§3) Incubated with gradient diluted 100 μL/well of antibodies for 1 h at room temperature. After the plates were washed 3 times with 200 ul/well of PBST, 100 ul of diluted HRP-labeled secondary antibody at a ratio of 1:5000 was added to each well, and the plates were incubated for 1 hour at room temperature. The plates were washed 3 times with 200 ul/well of PBST, 100 ul of TMB was added to each well and reacted for 5 minutes at room temperature in the dark. […] read the OD value. The affinity of humanized antibodies and parent antibodies were similar to the antigen (table 9).

[8] = molecular target: T1, human CD73 ecto-domain recombinant …; assay: indirect ELISA, coated huCD73 recombinant protein, curve fit
Protocol: as §3

[9] = molecular target: T2, cynomolgus CD73 on the cell surface …; assay: flow cytometry on 293T/17-Cyno CD73 cells
Protocol: (§4) 2×10⁶ cells resuspended in PBS buffer were distributed into 96-well plates and incubated with gradient diluted humanized antibodies for 1 h at refrigerator 4° C. or on ice, then the cells was centrifuged for 3 min 1500 rpm at 4° C. and washed three times by PBS, and diluted APC-labeled goat anti-human polyclonal antibody (Biolegend) were incubated for 30 min at refrigerator 4° C. Finally, the cells were washed three times with PBS as described above and analyzed on MACSQuant flow cytometer. GraphPad Prism software was used to generate data graphs and statistical affinity data.
(§5) The samples to be tested were incubated for 1 h at 4° C. after gradient dilution. After washing, 100 μL of APC-labeled secondary antibody was added to each well and incubated for 30 min. After washing, detecting on machine and the fluorescence value was read. GraphPad Prism software was used to generate data graphs and statistical affinity data.

[10] = molecular target: T1, human CD73 ecto-domain recombinant …; assay: indirect ELISA, plate coated with 1 ug/ml huCD73 recombinant protein, HRP-labelled secondary antibody, RFU
Protocol: as §3

[11] = molecular target: T2, cynomolgus CD73 on the cell surface …; assay: flow cytometry on 293T/17-Cyno CD73 cells, curve fit
Protocol: as §4, §5

[12] = molecular target: T2, cynomolgus CD73 on the cell surface …; assay: flow cytometry on 293T/17 cells expressing cynoCD73, APC-labelled goat anti-human antibody, MFI
Protocol: as §4, §5

Row | Binder | EC50 [1] [pM] | EC50 (read off the curve) [2] | Bottom [3] [OD450] | Top [3] [OD450] | IC50, blockade of 5'exonuclease activity on 293T/17-Cyno CD73 cells [4] [pM] | Bottom (lower plateau of the fitted curve), blockade of soluble huCD73 enzyme activity (AMP hydrolysis, luciferase/CellTiter-Glo) [5] | IC50, blockade of soluble huCD73 enzyme activity (AMP hydrolysis, luciferase/CellTiter-Glo) [5] [pM] | Top (upper plateau of the fitted curve), blockade of soluble huCD73 enzyme activity (AMP hydrolysis, luciferase/CellTiter-Glo) [5] | IC50, blockade of 5'exonuclease activity on 293T/17-Cyno CD73 cells [6] [pM] | EC50 [7] [pM] | Bottom [8] [OD value] | Top [8] [OD value] | EC50 [9] [pM] | EC50 (read off the curve) [10] [µg/mL] | Bottom [11] [fluorescence] | Top [11] [fluorescence] | EC50 (read off the curve) [12] [pM]
1 | S1B5 (antibody, human IgG1, kappa, V domains shown, Phage antibody, chimeric human IgG1 / human kappa full chains) VH: EVQLKESGAELVKPGASVKISCKATGYTFTGYWIEWVKQRPGRGLEWIGEILPGSDITNYNEKFKGKATITADTSSNTAYMQLSSLTTEDSAIYYCARRGYDETGYAMDYWGQGTSVTVSS VL: DIVMTQSPASLAVSLGQRATISCKASQSVDYDGDSYMNWYQQKPGQPPKLLIHAASNLESGIPARFSGSGSGTDFTLNIHPVEEEDAAVYFCQQSKEVPWTFGEGTKLEIKR | 85 | ~80 pM | 0.007 | 2.93 | 85 | 16.2 | 3260 | 99.5 | – | – | – | – | – | – | – | – | –
2 | 191C3A8B9 (antibody, mouse IgG1, kappa, V domains shown, Hybridoma antibody, mouse IgG1 / mouse kappa full chains) VH: QVQLKESGPGLVAPSQSLSITCTVSGFSLTNYGVHWVRQPPGKGLEWLGVIWAGGSTNYNSALMSRLSISKDNSKSQLFLKMNSLQADDTAMYYCARERGSSWGTMDYWGQGTSVTVSS VL: QIVLTQSPAIMSASPGEKVTMTCSASSRVSYMHWYQQKSGTSPKRWIYDTSQLASGVPARFSGSGSGTSYSLTISSMEAEDAATYYCQQWSSNPYTFGGGTKLEMRR | 279 | ~0.04 µg/mL | 0.0498 | 2.75 | 1 | 5.55 | 2410 | 93.7 | – | – | – | – | – | – | – | – | –
3 | JB24Chi (antibody, human IgG1, kappa, V domains shown, Phage antibody, chimeric human IgG1 / human kappa full chains) VH: QVQLQQSGLELVKPGASVKMSCKASGYTFTDYNMHWVKQSHGKSLEWIGYIKPHNGGTTYNPKFEGKATLTVNKSSSTAYMELRSLTSEDSAVYYCVRCDFLYWYFDVWGTGTTVTVSS VL: DIVMTQSPAIMSASLGERVTMTCTASSSVSSSYLHWYQQKPGSSPKLWIYSTSNLASGVPGRFSGSGSGTSYSLTISSMEAEDAATYYCHQYHRSPLTFGAGTKLEMKR | 39 | ~40 pM | 0.136 | 3.09 | 84 | 14.7 | 401 | 102 | 5 | 27.3 | 128 | 6600 | 6380 | ~0.1 | 0.709 | 68.5 | –
4 | 94A12G11F2 (antibody, mouse IgG1, kappa, Hybridoma antibody, mouse IgG1 / mouse kappa full chains) heavy: QVQLQQSGAELAKPGASVKLSCKASGYTFTSYWMHWVKQRPGQGLEWIGYINPSSGYTKSNQKFKDKATLTADKSSSTAYMQLSSLTYEDSAVYYCGRWLLSAWFAYWGQGTLVTVSAAKTTPPSVYPLAPGSAAQTNSMVTLGCLVKGYFPEPVTVTWNSGSLSSGVHTFPAVLQSDLYTLSSSVTVPSSTWPSETVTCNVAHPASSTKVDKKIVPRDCGCKPCICTVPEVSSVFIFPPKPKDVLTITLTPKVTCVVVDISKDDPEVQFSWFVDDVEVHTAQTQPREEQFNSTFRSVSELPIMHQDWLNGKEFKCRVNSAAFPAPIEKTISKTKGRPKAPQVYTIPPPKEQMAKDKVSLTCMITDFFPEDITVEWQWNGQPAENYKNTQPIMDTDGSYFVYSKLNVQKSNWEAGNTFTCSVLHEGLHNHHTEKSLSHSPGK light: DIRMTQSPSSMYASLGERVTITCKASQDINTYLSWFQQKPGKSPKSLIYRSNILVDGVPSRFSGSGSGQDYSLTISSLEYEDMGIYYCLQYDDFPYTFGGGTKLEIKRADAAPTVSIFPPSSEQLTSGGASVVCFLNNFYPKDINVKWKIDGSERQNGVLNSWTDQDSKDSTYSMSSTLTLTKDEYERHNSYTCEATHKTSTSPIVKSFNRNEC | 242 | ~200 pM | 0.0566 | 2.94 | 6 | 6.21 | 1500 | 87.8 | – | – | – | – | – | – | – | – | –
5 | JB24H2L1 (antibody, human IgG1, kappa, V domains shown, Humanized antibody of JB24Chi, human IgG1 / kappa) VH: QVQLVQSGAEVKKPGASVKMSCKASGYTFTDYNMHWVRQSPGKSLEWIGYIKPHNAGTTYNPKFEGRATLTVDTSASTAYMELSSLRSEDTAVYYCVRSDFLYWYFDVWGQGTTVTVSS VL: DIQMTQSPSSLSASVGDRVTITCTASSSVSSSYLHWYQQKPGKAPKLLIYSTSNLASGVPSRFSGSGSGTDFTLTISSLQPEDFATYYCHQYHRSPLTFGAGTKLEIKR | – | – | – | – | – | – | – | – | 79 | 24.8 | 191 | 6290 | 1890 | ~0.2 | 1.4 | 36.5 | ~2000
